Experiments:
[1] = target: T1, extracellular domain of human CD73 protein, C-terminus polyhistidine-tagged (human, UniProt P21589 27-547); assay: ELISA on CD73-ECD, 20 µL supernatant of antibody expression, second of two readings; PBS 0.19, 0.18
T1 construct: also the immunogen; also called CD73-ECD; human CD73-ECD
T1 sequence: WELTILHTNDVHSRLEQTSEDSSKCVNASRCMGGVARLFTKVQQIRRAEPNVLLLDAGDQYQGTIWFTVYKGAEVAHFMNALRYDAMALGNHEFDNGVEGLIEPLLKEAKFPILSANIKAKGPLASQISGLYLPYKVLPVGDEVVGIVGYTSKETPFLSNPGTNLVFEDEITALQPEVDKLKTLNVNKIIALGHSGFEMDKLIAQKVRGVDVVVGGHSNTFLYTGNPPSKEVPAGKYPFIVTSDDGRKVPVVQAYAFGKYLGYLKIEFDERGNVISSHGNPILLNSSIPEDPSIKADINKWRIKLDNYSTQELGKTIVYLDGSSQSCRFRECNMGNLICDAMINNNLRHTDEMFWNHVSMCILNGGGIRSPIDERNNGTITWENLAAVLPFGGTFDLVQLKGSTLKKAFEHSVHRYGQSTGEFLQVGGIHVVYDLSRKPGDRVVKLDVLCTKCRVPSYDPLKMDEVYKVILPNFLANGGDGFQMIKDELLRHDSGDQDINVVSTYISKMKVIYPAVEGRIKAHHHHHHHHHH
Procedure: (§1) The CD73 protein extracellular region (CD73-ECD) was diluted to 1 μg/mL using the coating solution, and an ELISA plate was coated at 100 μL/well at 4° C. overnight. Excess antigens were washed away, and the plate was blocked with 1% BSA at room temperature for 2 hours. Then, 5-fold gradient dilutions of each monoclonal antibody were added at 100 μL/well and incubated at room temperature for 1 hour. Unbound antibodies were washed away, and an appropriate concentration of Staphylococcal protein A labeled with horseradish peroxidase was added at 100 μL/well and incubated at room temperature for 0.5 hours. Unbound secondary antibodies were washed away, and TMB color development solution was added to react for about 15 minutes. 1M HCL was added at 50 µL/well to terminate the color development reaction, and then the absorbance was measured at 450 nm and the data was analyzed.
(§2) CD73 antigen ELISA binding affinity test was performed according to the method of Example 3.

[2] = target: T1, extracellular domain of human CD73 …; assay: ELISA on CD73-ECD, 4 µL supernatant of antibody expression, first of two readings; PBS 0.19, 0.18
Procedure: as §1, §2

[3] = target: T1, extracellular domain of human CD73 …; assay: ELISA on CD73-ECD, 4 µL supernatant of antibody expression, second of two readings; PBS 0.19, 0.18
[4] = target: T1, extracellular domain of human CD73 …; assay: ELISA on CD73-ECD, 0.8 µL supernatant of antibody expression, first of two readings; PBS 0.19, 0.18
Procedure: as §1, §2

- ELISA reading (not named on the sheet) [1]: 4.32
- ELISA reading (not named on the sheet) [2]: 4.23
- ELISA reading (not named on the sheet) [3]: 4.17
- ELISA reading (not named on the sheet) [4]: 4.18
B1: chimeric nanobody 5-E11 (Fc fusion)
VHH: ALQLVESGGGLVQPGGSLRLSCEVSGFTLDYYNIGWFRQAPGKEREGVSCSSNSGGSTYYADSVKGRFTISRDNAKNTVYLQMNSLKPEDTGVYYCAAYRGWHPSLDARVYDYWGQGTEVTVSS
notes: Human-alpaca chimeric antibody (VHH on hIgG1 Fc); Only the VHH is tied to the tested molecule; also called original antibody 5-E11
